In US20100279930A1 (published 2010) one finds IC50 data, which are given here for 55 molecules.

No end group written: not given here.

To fix the notation:
B1: 4058071 (protein)
chain: CAPLEPTYPGDNATPEQMARYAAALRRYINKLTRPRYCAPLEPTYPGDNATPEQMARYAAALRRYINKLTRPRY

What is called IC50 is the concentration that gives 50% inhibition.

The target in the first assay is T1, human Y4 receptor (human, UniProt P50391 1-375). Description: 125I-PP displacement.
T1 sequence (P50391 whole entry): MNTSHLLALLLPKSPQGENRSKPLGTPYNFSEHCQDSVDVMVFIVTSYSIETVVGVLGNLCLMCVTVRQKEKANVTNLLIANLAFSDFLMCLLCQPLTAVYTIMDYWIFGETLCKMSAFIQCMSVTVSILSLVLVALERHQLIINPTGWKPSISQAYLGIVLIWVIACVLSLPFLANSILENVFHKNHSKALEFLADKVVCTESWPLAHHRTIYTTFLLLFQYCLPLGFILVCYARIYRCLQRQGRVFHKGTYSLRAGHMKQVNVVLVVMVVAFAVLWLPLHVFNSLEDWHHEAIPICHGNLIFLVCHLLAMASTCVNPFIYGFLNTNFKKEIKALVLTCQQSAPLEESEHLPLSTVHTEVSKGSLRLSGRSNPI
As for APLEPEYPGDDATPQEMARYAAELRRYINKLTRPRY [4058680], the concentration for half-maximal inhibition (IC50) is 69 pM.
On the same count and under the same terms, with PLEPKYPGDNATPEELAKYAAELRRYINKLTRPRY [4058687] the figure was 96 pM; with PLEPHYPGDNATPEELAKYAAELRRYINKLTRPRY [4058702], 86 pM.
HAPLEPKYPGDDATPEELAHYYSELRRYINKLTRPRY [4058710] came in with an IC50 of 129 pM.
Still for that read-out and setting: the result for PAPLEPTYPGDNATPEELARYAAALRRYINKLTRPRY [4058738] reads 55 pM; that for APLEPKYPGDNATPEELAKYAAELRRYINKLTRPRY [4058688], 89 pM; that for PLEPEYPGDDATPQEMARYAAELRRYINKLTRPRY [4058679], 78 pM.
Molecule PLEPEYPGDDATPEEMAKYAAELRRYINKLTRPRY [4058673] showed an IC50 of 91 pM.
Same read-out and setting: the result for AAPLEPHYPGDNATPEEMAKYAAELRRYINKLTRPRY [4058697] reads 95 pM.
On the same count and under the same terms, the result for PAPLEPHYPGDNATPEELAKYAAELRRYINKLTRPRY [4058678] reads 90 pM; that for AAPLEPHYPGDNATPEELAKYAAELRRYINKLTRPRY [4058704], 94 pM; that for YAPLEPKYPGDNATPEELAKYAAELRRYINKLTRPRY [4058693], 77 pM.
The same measure, in the same setting: with PAPLEPKYPGDNASPEQMAKYAAELRRYINKLTRPRY [4058669] the figure was 43 pM.
In the case of HAPLEPKYPGDNATPEELAKYAAELRRYINKLTRPRY [4058692], the IC50 was 131 pM.
Still for that read-out and setting: with AKPLEPKYPGDNATPEELAKYAAELRRYINKLTRPRY [4058690] the figure was 71 pM.
The same measure, in the same setting: the result for GAPLEPHYPGDNATPEEMAKYAAELRRYINKLTRPRY [4058698] reads 72 pM; that for PAPLEPKYPGDDATPQEMARYAAELRRYINKLTRPRY [4058686], 76 pM.
Still for that read-out and setting: the result for PAPLEPHYPGDDATPEELAKYAAELRRYINKLTRPRY [4058705] reads 97 pM; that for PAPLEPHYPGDDATPEEMAKYAAELRRYINKLTRPRY [4058701], 99 pM; that for YAPLEPEYPGDDATPQEMARYAAELRRYINKLTRPRY [4058684], 87 pM.
With PAPLEPEYPGDDATPQEMARYAAELRRYINKLTRPRY [4058681], the half-maximal inhibitory concentration (IC50) is 87 pM.
Regarding PAPLEPKYPGDDATPQQMAKYAAELRRYINKLTRPRY [4058670], the 50% inhibitory concentration (IC50) came to 80 pM.
The same measure, in the same setting: with GAPLEPEYPGDDATPQEMARYAAELRRYINKLTRPRY [4058682] the figure was 76 pM; with AAPLEPEYPGDDATPQEMARYAAELRRYINKLTRPRY [4058683], 81 pM; with AKPLEPEYPGDDATPQEMARYAAELRRYINKLTRPRY [4058685], 90 pM.

Another assay deals with T1, human Y4 receptor. Description: 125I-PP displacement. This is another data set of the same source.
Consider PAPLEIVYPGDNATPEQMARYYSELRRYINKLTRPRY [4058285], for which the IC50 came out at 210 pM.
On the same count and under the same terms, the result for AAPLEPVYPGDNATPEQLARYYSELRRYINKLTRPRY [4058298] reads 72 pM; that for AAPLEPVYPGDNATPEQMARYYSELRRYINKLTRPRY [4058280], 42 pM.
On the same count and under the same terms, the result for PAPLEAVYPGDNATPEQMARYYSELRRYINKLTRPRY (ends and bridges not checked) [compound of SEQ ID NO:702 (code 4058286)] reads 93 pM; that for PLEPVYPGDNATPEQLARYYSELRRYINKLTRPRY [4058296], 53 pM; that for PLEPKYPGDNATPEQLAKYAAELRRYINKLTRPRY [4058165], 63 pM.
On the same count and under the same terms, the result for PLEPKYPGDNATPEQMAKYAAELRRYINKLTRPRY [4058158] reads 47 pM.
The molecule PLEPEYPGDNATPEQMAKYAAELRRYINLLTRPRY [4058154] displayed an IC50 of 105 pM.
On the same count and under the same terms, with PLEPSYPGDNATPEQMAKYAAELRRYINKLTRPRY [4058146] the figure was 46 pM; with HAPLEPTYPGDNATPEQMARYAAALRRYINKLTRPRY [4058069], 70 pM; with PAPLEPTYPGDNATPEQMARYAAALRRYINKLTRPRY [4058070], 30 pM.
The same measure, in the same setting: the result for APLEPSYPGDNATPEQMAKYAAELRRYINKLTRPRY [4058147] reads 57 pM; that for PLEPEYPGDNATPEEMAKYAAELRRYINKLTRPRY [4058072], 51 pM.
On the same count and under the same terms, with HAPLEPKYPGDNATPEQMAKYAAELRRYINKLTRPRY [4058163] the figure was 87 pM; with AAPLEPEYPGDNATPEEMAKYAAELRRYINKLTRPRY [4058076], 48 pM.
Molecule AAPLEPSYPGDNATPEQMAKYAAELRRYINKLTRPRY [4058148] came in with a 50% inhibitory concentration (IC50) of 51 pM.
Same read-out and setting: the result for GAPLEPKYPGDNATPEQMAKYAAELRRYINKLTRPRY [4058160] reads 52 pM; that for PAPLEPKYPGDNATPEQMAKYAAELRRYINLLTRPRY [4058169], 99 pM; that for HAPLEPEYPGDNATPEEMAKYAAELRRYINKLTRPRY [4058074], 116 pM.
On to PAPLEPSYPGDNATPEQMAKYAAELRRYINLLTRPRY [4058153], for which the IC50 came to 107 pM.
Still for that read-out and setting: with AAPLEPVYPGDNATPEEMARYYSELRRYINKLTRPRY [4058295] the figure was 59 pM; with PAPLEPKYPGDNATPEQLAKYAAELRRYINKLTRPRY [4058168], 48 pM; with PAPLEPEYPGDNATPEELAKYAAELRRYINKLTRPRY [4058078], 72 pM.
On the same count and under the same terms, the result for GAPLEPKYPGDNATPEQLAKYAAELRRYINKLTRPRY [4058167] reads 60 pM; that for YAPLEPKYPGDNATPEQMAKYAAELRRYINKLTRPRY [4058164], 58 pM; that for GAPLEPEYPGDNATPEEMAKYAAELRRYINKLTRPRY [4058073], 131 pM.
The same measure, in the same setting: the result for AAPLEPTYPGDNATPEQMARYAAALRRYINKLTRPRY [4058068] reads 26 pM.
As to AAPLEPSYPGDDATPQQMAHYYSELRRYINLLTRPRY [4058082], the half-inhibitory concentration (IC50) was 110 pM.
Still for that read-out and setting: with PAPLEPEYPGDNATPEEMAKYAAELRRYINKLTRPRY [4058077] the figure was 59 pM; with B1, 143 pM.
